Measured values: patent publication US20250313627A1 (FUSE BIOTHERAPEUTICS, published 2025)
Positions count from the first letter of the chain named. In names and notes the source's numbering stands.

B1: FUSE-662 - h2A11-HK2-16-N84S Fc (Fc fusion)
chain: EVQLLESGGGLVQPGGSLRLSCAASGVGYSANCMGWFRQAPGKDRELASMSIRSGRTYYADSVKGRFTISRDSSKNTLYLQMSSLKAEDTAVYYCAAAYGGSRCVYNYRGQGTLVTVSS
notes: VHH-Fc format; not shown: Fc of the VHH-Fc format
B2: FUSE-661 - h2A11-HK2-3-N84S Fc (Fc fusion)
chain: B1 chain with V27S, G28Q, Y29R
notes: as for B1
B3: FUSE-655 - h5A1-FA9-HK6-N84S Fc (Fc fusion)
chain: EVQLLESGGGLVPRGGSLRLSCTASGYTNRLKCMGWFRQAPGKEREEIASISTGTGNTYYADSVKGRFTISQDKSRNTLYLQMSSLKAEDTAVYYCAADVRPRGTTCHYNSRGQGTQVTVSS
notes: as for B1
B4: FUSE-654 - h5A1-FA9-HK6-R19K Fc (Fc fusion)
chain: B3 chain with R19K, S84N
notes: as for B1
B5: F221581018 (h5A1-BI-018 Fc) (Fc fusion)
chain: B3 chain with P13Q, R14P, T23A, I48V, T58A, R76K, S84N, R103H, T105R, Q117L
notes: VHH-Fc format; also called F22158118; not shown: Fc of the VHH-Fc format
B6: F22158102 (h5A1-BI-002 Fc) (Fc fusion)
chain: B3 chain with P13Q, R14P, T23A, L31I, I48V, R76K, S84N, R103D, S111K, Q117L
notes: as for B1
B7: F22158108 (h5A1-BI-008 Fc) (Fc fusion)
chain: EVQLLESGGGLVQPGGSLRLSCAASGYTNRIKCMGWFRQAPGKEREEVASISTGTGNAYYADSVKGRFTISQDKSKNTLYLQMNSLKAEDTAVYYCAADVRPDGRTCHYNSRGQGTLVTVSS
notes: as for B1
B8: F221581012 (h5A1-BI-012 Fc) (Fc fusion)
chain: B7 chain with I31L, A58T, D103F
notes: VHH-Fc format; also called F22158112; not shown: Fc of the VHH-Fc format
B9: F22158101 (h5A1-BI-001 Fc) (Fc fusion)
chain: B7 chain with A58T, R105F
notes: as for B1
B10: F221581010 (h5A1-BI-010 Fc) (Fc fusion)
chain: B7 chain with I31L, A58T, S111K
notes: VHH-Fc format; also called F22158110; not shown: Fc of the VHH-Fc format
B11: F22158106 (h5A1-BI-006 Fc) (Fc fusion)
chain: B7 chain with A58T
notes: as for B1
B12: F221581017 (h5A1-BI-017 Fc) (Fc fusion)
chain: B7 chain with D103H, R105T
notes: VHH-Fc format; also called F22158117; not shown: Fc of the VHH-Fc format
B13: F22158105 (h5A1-BI-005 Fc) (Fc fusion)
chain: B7 chain with I31L, A58T, R105F, S111K
notes: as for B1
B14: F221581021 (h5A1-BI-021 Fc) (Fc fusion)
chain: B7 chain with D103H, R105T, S111K
notes: VHH-Fc format; also called F22158121; not shown: Fc of the VHH-Fc format
B15: F221581016 (h5A1-BI-016 Fc) (Fc fusion)
chain: B7 chain with I31L, D103H, R105T
notes: VHH-Fc format; also called F22158116; not shown: Fc of the VHH-Fc format
B16: F221581014 (h5A1-BI-014 Fc) (Fc fusion)
chain: B7 chain with A58T, D103F
notes: VHH-Fc format; also called F22158114; not shown: Fc of the VHH-Fc format
B17: F22158104 (h5A1-BI-004 Fc) (Fc fusion)
chain: B7 chain with R105T, S111K
notes: as for B1
B18: F221581019 (h5A1-BI-019 Fc) (Fc fusion)
chain: B7 chain with D103H
notes: VHH-Fc format; also called F22158119; not shown: Fc of the VHH-Fc format
B19: F221581015 (h5A1-BI-015 Fc) (Fc fusion)
chain: B7 chain with A58T, D103F, R105T, S111K
notes: VHH-Fc format; also called F22158115; not shown: Fc of the VHH-Fc format
B20: F22158107 (h5A1-BI-007 Fc) (Fc fusion)
chain: B7 chain with I31L
notes: as for B1
B21: F22158109 (h5A1-BI-009 Fc) (Fc fusion)
chain: B7 chain with A58S, S111K
notes: as for B1
B22: F22158103 (h5A1-BI-003 Fc) (Fc fusion)
chain: B7 chain with I31L, R105T, S111K
notes: as for B1
B23: F221581013 (h5A1-BI-013 Fc) (Fc fusion)
chain: B7 chain with I31L, A58T, D103F, R105T, S111K
notes: VHH-Fc format; also called F22158113; not shown: Fc of the VHH-Fc format
B24: F221581011 (h5A1-BI-011 Fc) (Fc fusion)
chain: B7 chain with A58T, D103F, R105T
notes: VHH-Fc format; also called F22158111; not shown: Fc of the VHH-Fc format
B25: F221581020 (h5A1-BI-020 Fc) (Fc fusion)
chain: B7 chain with I31L, D103H, R105T, S111K
notes: VHH-Fc format; also called F22158120; not shown: Fc of the VHH-Fc format
B26: FUSE-589 (h2A11-HK5 Fc) (Fc fusion)
chain: B1 chain with V27S, G28T, D44E, R71Q, S73G, S83N
notes: as for B1
B27: FUSE-590 (h5A1-FA9-HK2_Fc) (Fc fusion)
chain: B3 chain with P13Q, A61S, Q72R, S84K, K87R
notes: as for B1
B28: FUSE-591 (h5A1-FA9-HK3_Fc) (Fc fusion)
chain: B3 chain with T23A, S50T, S84N, R103K, S111K
notes: as for B1
B29: FUSE-592 (h5A1-FA9-HK4_Fc) (Fc fusion)
chain: B3 chain with T23A, I48V, M83L, S84N, K87R
notes: as for B1
B30: FUSE-593 (h5A1-FA9-HK5_Fc) (Fc fusion)
chain: B3 chain with P13Q, T23A, A61S, Q72R, M83L, S84N, R103K
notes: as for B1
B31: FUSE-596 (h5A1-FA9-HK8 Fc) (Fc fusion)
chain: B3 chain with A61S, Q72R, Q82K, M83L, S84K, K87R, R103D
notes: as for B1
B32: FUSE-594 (h5A1-FA9-HK6_Fc) (Fc fusion)
chain: B3 chain with S84N
notes: as for B1
B33: FUSE-595 (h5A1-FA9-HK7_Fc) (Fc fusion)
chain: B3 chain with P13Q, S50T, Q72R, S84K, R103K
notes: as for B1
B34: FUSE-560 (h2A11-HK2 Fc) (Fc fusion)
chain: B1 chain with V27S, G28T, D44E, S83N
notes: as for B1
B35: FUSE-562 (h2A11-HK4 Fc) (Fc fusion)
chain: B1 chain with V27S, G28T, D44E, A60S, S73G, S83N
notes: as for B1
B36: FUSE-561 (h2A11-HK3 Fc) (Fc fusion)
chain: B1 chain with V27S, G28T, D44E, S83N, K86R
notes: as for B1
B37: BI-HU9-VH9 h5A1 Fc (Fc fusion)
chain: B3 chain with S50T, Q72R, K74N, S84K, S85T, K87R, R103D, R112W
notes: VHH-Fc format; same VHH as FUSE-497; not shown: Fc of the VHH-Fc format
B38: BI-HU9-HK-1 h5A1 Fc (Fc fusion)
chain: B7 chain with I31L, A58T, R105T
notes: as for B1
B39: BI-HU9-VH9-1 h5A1 Fc (Fc fusion)
chain: B3 chain with S50T, S84K, S85T, K87R, R103D, R112W
notes: as for B1
B40: BI-HU9-VHH31 h5A1 Fc (Fc fusion)
chain: EVQLVESGGGLVQPGGSLRLSCAASGFTVRLKCMGWFRQAPGKGLEEVATISTGTGNTYYADSVKGRFTISRDNSKNTLYLQMNSLRAEDTAVYYCAADVRPDGTTCHYNSWGQGTTVTVSS
notes: as for B1

target: T1, human ROR1 (Receptor Tyrosine Kinase-Like Orphan Receptor 1) on the cell surface (human, UniProt Q01973 30-937); assay: flow cytometry, LS174T cells expressing human ROR1 (low density)
T1 construct: whole, on cells; engineered into B16-F10 (high density) and LS174T (low density) cells; also called B16-F10-ROR1-H; LS174T-ROR1-L
T1 sequence (Q01973 30-937): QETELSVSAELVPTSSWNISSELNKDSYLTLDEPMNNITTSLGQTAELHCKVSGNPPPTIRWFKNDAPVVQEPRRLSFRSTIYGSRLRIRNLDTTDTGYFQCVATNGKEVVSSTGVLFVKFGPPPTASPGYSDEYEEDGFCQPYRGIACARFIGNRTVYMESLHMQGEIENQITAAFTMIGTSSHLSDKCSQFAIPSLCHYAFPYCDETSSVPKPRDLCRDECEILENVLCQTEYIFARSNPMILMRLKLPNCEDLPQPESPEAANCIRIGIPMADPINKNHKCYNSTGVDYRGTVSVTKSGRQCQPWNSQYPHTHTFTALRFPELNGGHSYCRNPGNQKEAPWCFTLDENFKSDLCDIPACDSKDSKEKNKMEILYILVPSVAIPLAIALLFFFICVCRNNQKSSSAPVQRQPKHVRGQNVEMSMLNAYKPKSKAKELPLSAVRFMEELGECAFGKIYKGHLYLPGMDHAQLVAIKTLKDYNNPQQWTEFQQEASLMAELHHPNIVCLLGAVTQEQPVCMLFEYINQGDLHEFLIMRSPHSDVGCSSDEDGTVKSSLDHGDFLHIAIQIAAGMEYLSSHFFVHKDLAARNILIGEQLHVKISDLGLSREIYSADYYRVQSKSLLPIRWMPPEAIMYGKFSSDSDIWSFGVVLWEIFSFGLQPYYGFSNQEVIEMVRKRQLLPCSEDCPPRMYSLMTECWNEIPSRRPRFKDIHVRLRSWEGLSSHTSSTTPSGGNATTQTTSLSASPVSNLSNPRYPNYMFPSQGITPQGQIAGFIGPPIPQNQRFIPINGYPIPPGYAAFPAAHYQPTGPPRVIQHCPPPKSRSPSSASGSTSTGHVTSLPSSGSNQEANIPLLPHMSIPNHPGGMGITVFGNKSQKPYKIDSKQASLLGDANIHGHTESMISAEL
Description: (§1) As shown in the tables below, mouse B16-F10 melanoma (Tables 9A-9F) or LS174T human colorectal adenocarcinoma (Tables 9G-9H) cells genetically engineered to express human ROR1 at high and low densities, respectively, were stained for flow cytometric analysis with 100 nM of humanized variants of the ROR1 specific VHHs, 5A1 or 2A11 in either a VHH-Fc format or the Ac13 format shown in FIG. 1. Cells were analyzed on a flow cytometer after the primary test article was fluorescently tagged with a goat anti human IgG-Fc specific PE secondary antibody. The positive control used was PE conjugated anti-human ROR1 clone 2A2. Negative controls included a PE labeled mouse IgG Ab, the secondary antibody only, the combination of a Hen Egg Lysozyme (HEL) specific antibody plus goat anti human IgG-Fc specific PE and Fluorescence Minus One (FMO). Other controls included the non-humanized version of 5A1-Fc (FUSE179), 2A11-Fc (FUSE112) and 5A1-Ac13 (FUSE488). Humanized variants were generated using computational design (FUSE489, FUSE497-498, FUSE563, FUSE569-570, and BI-HU9-VHH11-33), a yeast display library in which mutations were inserted into the Vernier zone residues of human framework indicated in GenBank accession number M99660 (FUSE524-525, FUSE589, FUSE597-598, FUSE537, FUSE661-662, BI-HU9-HK and BI-HU9-HK-1), and a second yeast display library in which mutations were inserted into the Vernier zone residues of human framework indicated in GenBank accession number AWH66715 and amino acid position 103 within CDR3 (FUSE559, FUSE590-596, BI-HU9-VH9-1, FUSE654-655 and FUSE661-662. Affinity matured variants of FUSE559 were also generated using computational design (F22158101-21; Table 9H).

MFI	Binder
4350	B1
4880	B2
4010	B3
4560	B4

target: T1, human ROR1 (Receptor Tyrosine …); assay: as above; remark: another data set of the same source
Description: as §1

MFI	Binder
17500	B5
20500	B6
25100	B7
14200	B8
19700	B9
18700	B10
17400	B11
28600	B12
22300	B13
35800	B14
15000	B15
28700	B16
28900	B17
33800	B18
29300	B19
11500	B20
35000	B21
15800	B22
23800	B23
19400	B24
26500	B25

target: T1, human ROR1 (Receptor Tyrosine …); assay: flow cytometry, B16-F10 cells expressing human ROR1 (high density)
Description: as §1

MFI	Binder
6950	B26
7330	B27
7770	B28
7540	B29
7520	B30
6260	B31
7910	B32
7180	B33

target: T1, human ROR1 (Receptor Tyrosine …); assay: as above; remark: another data set of the same source
Description: as §1

MFI	Binder
159000	B34
155000	B35
157000	B36
14400	B37
136000	B38
16600	B39
17900	B40
